Assay results as given in US20260167959A1, “APTAZYME-BASED REGULATABLE GENE EXPRESSION SYSTEMS” (REJUVENATE BIO INC, priority 2022, published 2026).

B1: RA325 (nucleic acid)
DNA: GCGCGTCCTGGATTCGCGGAAACGCGTACATCCAGCTGACGAGTCCCAAATAGGAGGAATACCAGCATCGTCTTGATGCCCTTGGAAGTCCCAAAACGCGC
modifications: expressed or natural sequence
B2: RA332 (nucleic acid)
DNA: GCGCGTCCTGGATTCGCGGAAACGCGTACATCCAGCTGACGAGTCGGAATACCAGCATCGTCTTGATGCCCTTGGAAGTCCCCAAATAGGACGAAACGCGC
modifications: expressed or natural sequence
B3: RA317 (nucleic acid)
DNA: GCGCGTCCTGGATTCGCGGAAACGCGTACATCCAGCTGACGAGTCCCAAATAGCCGGAATACCAGCATCGTCTTGATGCCCTTGGAAGTCCGGGACGAAACGCGC
modifications: expressed or natural sequence
B4: RA322 (nucleic acid)
DNA: GCGCGTCCTGGATTCGCGGAGAATACCAGCATCGTCTTGATGCCCTTGGAAGTCTAAACGCGTACATCCAGCTGACGAGTCCCAAATAGGACGAAACGCGC
modifications: expressed or natural sequence
B5: RA326 (nucleic acid)
DNA: GCTGTCACCGGAATACCAGCATCGTCTTGATGCCCTTGGAAGTCCGGTCTGATGAGTCCCTTGAGGACGAAACAGC
modifications: expressed or natural sequence
B6: RA329 (nucleic acid)
DNA: GCGCGTCCTGGATTCGCGGAAACGCGTACATCCAGCTGACGAGTCCCAAATAGGACGAAACAGTGATACCAGCATCGTCTTGATGCCCTTGGCAGCACTGCGC
modifications: expressed or natural sequence
B7: RA319 (nucleic acid)
DNA: GCGCGTCCTGGATTCGCGGAAACGCGTACAGAGAATACCAGCATCGTCTTGATGCCCTTGGAAGTCTCTCCAGCTGACGAGTCCCAAATAGGACGAAACGCGC
modifications: expressed or natural sequence
B8: RA333 (nucleic acid)
DNA: GCGCGTCCTGGATTCGCGGAAACGCGTACATCCAGCTGACGAGTCCCAAAGAATACCAGCATCGTCTTGATGCCCTTGGAAGTCTATAGGACGAAACGCGC
modifications: expressed or natural sequence
B9: RA309 (nucleic acid)
DNA: GCGCGAGAATACCAGCATCGTCTTGATGCCCTTGGAAGTCTTCCTGGATTCGCGGAAACGCGTACATCCAGCTGACGAGTCCCAAATAGGACGAAACGCGC
modifications: expressed or natural sequence
B10: RA327 (nucleic acid)
DNA: GCGCGTCCTGGATTCGCGGAAACGCGTAGTGATACCAGCATCGTCTTGATGCCCTTGGCAGCACTACATCCAGCTGACGAGTCCCAAATAGGACGAAACGCGC
modifications: expressed or natural sequence
B11: RA334 (nucleic acid)
DNA: GCGCGTCCTGGATTCGCGGAAACGCGTACCCGGAATACCAGCATCGTCTTGATGCCCTTGGAAGTCCGGATCCAGCTGACGAGTCCCAAATAGGACGAAACGCGC
modifications: expressed or natural sequence
B12: RA331 (nucleic acid)
DNA: GCGCGTCCTGGGAATACCAGCATCGTCTTGATGCCCTTGGAAGTCCGATTCGCGGAAACGCGTACATCCAGCTGACGAGTCCCAAATAGGACGAAACGCGC
modifications: expressed or natural sequence
B13: RA320 (nucleic acid)
DNA: GCGCGTCCTGGATTCGCGGAAACGCGTACATCCAGCTGACGAGTAGTGATACCAGCATCGTCTTGATGCCCTTGGCAGCACTCCCAAATAGGACGAAACGCGC
modifications: expressed or natural sequence
B14: RA312 (nucleic acid)
DNA: GCGCGTCCTGGATTCGCGGAAACGCGTACATCCAGCTGACGAGGAATACCAGCATCGTCTTGATGCCCTTGGAAGTCCGTCCCAAATAGGACGAAACGCGC
modifications: expressed or natural sequence
B15: RA316 (nucleic acid)
DNA: GCGCGTCCTGGATGGAATACCAGCATCGTCTTGATGCCCTTGGAAGTCCTCGCGGAAACGCGTACATCCAGCTGACGAGTCCCAAATAGGACAAAACGCGC
modifications: expressed or natural sequence
B16: RA324 (nucleic acid)
DNA: GCGCGTCCTGGATTCGCGGAAACCGGAATACCAGCATCGTCTTGATGCCCTTGGAAGTCCGGCGTACATCCAGCTGACGAGTCCCAAATAGGACGAAACGCGC
modifications: expressed or natural sequence
B17: RA315 (nucleic acid)
DNA: GCGCGTCCTGGATTCGCGGAAACGCGTACATCCAGCTGACGAGTCCCAAATAGGACGAACGAGAATACCAGCATCGTCTTGATGCCCTTGGAAGTCTCGACGCGC
modifications: expressed or natural sequence
B18: RA313 (nucleic acid)
DNA: GCGCGTCCTGGATTCGCGGAAACGCGTACATCCAGCTGACGAGTCCCAACGGAATACCAGCATCGTCTTGATGCCCTTGGAAGTCCGATAGGACGAAACGCGC
modifications: expressed or natural sequence
B19: RA311 (nucleic acid)
DNA: GCGCGTCCTGGATTCGCGGAAACGCGTCGAGAATACCAGCATCGTCTTGATGCCCTTGGAAGTCTCGACATCCAGCTGACGAGTCCCAAATAGGACGAAACGCGC
modifications: expressed or natural sequence
B20: RA314 (nucleic acid)
DNA: GCGCGTCCTGGATTCGCGGAAACGCGTACATCCAGCTGACGAGTCCCAAATAGGGAATACCAGCATCGTCTTGATGCCCTTGGAAGTCCGACGAAACGCGC
modifications: expressed or natural sequence
B21: RA310 (nucleic acid)
DNA: GCGCGTCCTGGATTCGCGGAAACGCGTACATCCAGCTGACGAGTCCCAAATAGAATACCAGCATCGTCTTGATGCCCTTGGAAGTCTAGGACGAAACGCGC
modifications: expressed or natural sequence
B22: RA321 (nucleic acid)
DNA: GCGCGTCCTGGATTCGCGGAAACGCGTACATCCAGCTAGTGATACCAGCATCGTCTTGATGCCCTTGGCAGCACTGACGAGTCCCAAATAGGACGAAACGCGC
modifications: expressed or natural sequence
B23: RA318 (nucleic acid)
DNA: GCGGAATACCAGCATCGTCTTGATGCCCTTGGAAGTCCGCGCGTCCTGGATTCGCGGAAACGCGTACATCCAGCTGACGAGTCCCAAATAGGACGAAACGCGC
modifications: expressed or natural sequence
B24: RA328 (nucleic acid)
DNA: GCGCGTCCTGGATTCGCGGAAACGCGTACATCCAGCTGACAGTGATACCAGCATCGTCTTGATGCCCTTGGCAGCACTGAGTCCCAAATAGGACGAAACGCGC
modifications: expressed or natural sequence
B25: RA330 (nucleic acid)
DNA: GCGCGTCCTGGGAGAATACCAGCATCGTCTTGATGCCCTTGGAAGTCTCATTCGCGGAAACGCGTACATCCAGCTGACGAGTCCCAAATAGGACGAAACGCGC
modifications: expressed or natural sequence
B26: RA323 (nucleic acid)
DNA: GCGCGTCCTGGATTCGCGCGGAATACCAGCATCGTCTTGATGCCCTTGGAAGTCCGGAAACGCGTACATCCAGCTGACGAGTCCCAAATAGGACGAAACGCGC
modifications: expressed or natural sequence
B27: RA031 (nucleic acid)
DNA: GCGCGTCCGAGAATACCAGCATCGTCTTGATGCCCTTGGAAGTCTCTGGATTCGCGGAAACGCGTACATCCAGCTGACGAGTCCCAAATAGGACGAAACGCGC
modifications: expressed or natural sequence
B28: RA032 (nucleic acid)
DNA: GCGCGTCCTGGATTCGCGGAAAAGTGATACCAGCATCGTCTTGATGCCCTTGGCAGCACTCGCGTACATCCAGCTGACGAGTCCCAAATAGGACGAAACGCGC
modifications: expressed or natural sequence

What follows are molecules tested on Renilla luciferase RNA (assay: Barcoded aptazyme variant library screen: un-cleaved Renilla luciferase RNA by barcode read counts, HEK293-T cells). Conditions: un-cleaved Renilla luciferase RNA by barcode read counts; with 1 mM theophylline (ON) over without theophylline (OFF); HEK293-T cells; triplicate.
Type: cell-based
Method in brief: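 Barcode sequencing of cDNA versus DNA, normalized per aptazyme, gave the un-cleaved Renilla luciferase RNA fraction and fold-change with versus without theophylline (triplicates). Library: T3H48 ribozyme with one of seven theophylline aptamer variants inserted at each position, placed in the Renilla 3′ UTR of a dual-luciferase vector.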

| Molecule | Fold change in RNA expression between the ON state and the OFF state |
| --- | --- |
| B1 | 0.9 |
| B2 | 0.9 |
| B3 | 0.9 |
| B4 | 0.9 |
| B5 | 0.9 |
| B6 | 0.9 |
| B7 | 0.9 |
| B8 | 0.9 |
| B9 | 1.0 |
| B10 | 0.9 |
| B11 | 0.9 |
| B12 | 0.9 |
| B13 | 0.9 |
| B14 | 1.0 |
| B15 | 0.9 |
| B16 | 0.9 |
| B17 | 1.0 |
| B18 | 1.0 |
| B19 | 1.0 |
| B20 | 1.0 |
| B21 | 1.0 |
| B22 | 0.9 |
| B23 | 0.9 |
| B24 | 0.9 |
| B25 | 0.9 |
| B26 | 0.9 |

Same assay, conditions: un-cleaved Renilla luciferase RNA, HEK293-T cells cultured with 1 mM theophylline (ON) over without theophylline (OFF); barcode read counts, triplicate

| Molecule | Fold change in RNA expression between the ON state and the OFF state [fold] |
| --- | --- |
| B27 | 2.3 |
| B28 | 2.3 |
